This is an account of results in paper PMC5499739, “An RRM–ZnF RNA recognition module targets RBM10 to exonic sequences to promote exon exclusion”.

Data set [1] has as its target T1, RBM10 RRM1-ZnF-RRM2 (Homo sapiens) (UniProt P98175).
T1 sequence: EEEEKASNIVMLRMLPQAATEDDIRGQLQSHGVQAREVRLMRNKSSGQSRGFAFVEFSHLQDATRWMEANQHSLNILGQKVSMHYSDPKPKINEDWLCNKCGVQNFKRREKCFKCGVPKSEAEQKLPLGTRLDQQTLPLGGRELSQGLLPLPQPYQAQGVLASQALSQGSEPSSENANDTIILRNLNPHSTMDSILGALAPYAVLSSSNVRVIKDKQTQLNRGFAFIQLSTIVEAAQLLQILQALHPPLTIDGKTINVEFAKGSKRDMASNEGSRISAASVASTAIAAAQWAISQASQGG
The experiment in a line: pulldown. To be noted: 20 nM protein; 20 mM Hepes pH 7.8, 80 mM KCl, 20 mM NaCl, 10% glycerol, 2 mM DTT; 4 C.

In data set [2] the target is T2, RBM10 RRM1-ZnF (Homo sapiens) (UniProt P98175).
T2 sequence: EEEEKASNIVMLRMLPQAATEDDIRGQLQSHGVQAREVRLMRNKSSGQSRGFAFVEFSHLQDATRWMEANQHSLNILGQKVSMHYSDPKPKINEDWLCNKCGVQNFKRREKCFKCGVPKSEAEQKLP
Put plainly: pulldown. To be noted: 20 nM protein; 20 mM Hepes pH 7.8, 80 mM KCl, 20 mM NaCl, 10% glycerol, 2 mM DTT; 4 C.

Data set [3] addresses T3, RBM10 RRM1-ZnF (Homo sapiens, UniProt P98175 129-242).
T3 sequence: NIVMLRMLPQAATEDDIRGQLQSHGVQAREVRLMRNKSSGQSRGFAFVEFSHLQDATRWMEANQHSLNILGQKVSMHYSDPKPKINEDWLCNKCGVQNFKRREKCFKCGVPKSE
Put plainly: ITC; 10 uM ZnCl2; 10 mM sodium phosphate pH 6.9, 50 mM NaCl, 1 mM TCEP (+10 uM ZnCl2 for ZnF constructs); ITC 25 C; NMR 298 or 310 K. Conditions: protein: recombinant; tags: His6 or His6-SUMO3, cleaved with HRV 3C.

The target of another data set is T4, RBM10 RRM2 (Homo sapiens, UniProt P98175 300-384).
T4 sequence: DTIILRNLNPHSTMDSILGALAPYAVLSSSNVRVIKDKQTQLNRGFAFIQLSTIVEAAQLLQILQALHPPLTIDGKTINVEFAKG
The experiment in a line: ITC; 10 mM sodium phosphate pH 6.9, 50 mM NaCl, 1 mM TCEP (+10 uM ZnCl2 for ZnF constructs); ITC 25 C; NMR 298 or 310 K. Conditions: protein: recombinant; tags: His6 or His6-SUMO3, cleaved with HRV 3C.

The target in data set [4] is T3, RBM10 RRM1-ZnF. The experiment in a line: ITC; 10 uM ZnCl2; 10 mM sodium phosphate pH 6.9, 50 mM NaCl, 1 mM TCEP (+10 uM ZnCl2 for ZnF constructs); ITC 25 C; NMR 298 or 310 K. Conditions: protein: recombinant; tags: His6 or His6-SUMO3, cleaved with HRV 3C. This is another data set of the same source.
The next data set has as its target T5, RBM10 RRM1-ZnF-RRM2 (Homo sapiens, UniProt P98175 129-384).
T5 sequence: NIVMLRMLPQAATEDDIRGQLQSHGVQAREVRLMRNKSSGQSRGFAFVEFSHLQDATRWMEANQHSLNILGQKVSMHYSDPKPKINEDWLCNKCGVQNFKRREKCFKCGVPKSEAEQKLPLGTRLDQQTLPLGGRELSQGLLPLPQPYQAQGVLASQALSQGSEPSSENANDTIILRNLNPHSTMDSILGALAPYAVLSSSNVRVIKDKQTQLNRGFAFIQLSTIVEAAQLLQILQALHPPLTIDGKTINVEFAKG
Put plainly: NMR; 10 uM ZnCl2; RRM1-ZnF slow exchange, Kd in nM range; RRM2 second weak event, Kd in uM range; 10 mM sodium phosphate pH 6.9, 50 mM NaCl, 1 mM TCEP (+10 uM ZnCl2 for ZnF constructs); ITC 25 C; NMR 298 or 310 K. To be noted: protein: recombinant; tags: His6 or His6-SUMO3, cleaved with HRV 3C.

In data set [5] the target is T3, RBM10 RRM1-ZnF. The experiment in a line: ITC; 10 uM ZnCl2; 10 mM sodium phosphate pH 6.9, 50 mM NaCl, 1 mM TCEP (+10 uM ZnCl2 for ZnF constructs); ITC 25 C; NMR 298 or 310 K. To be noted: protein: recombinant; tags: His6 or His6-SUMO3, cleaved with HRV 3C. The source holds these as a separate data set.

On to GAAAUGG [7-mer GAAAUGG], for which the figures for the binding signal (RNAcompete z-score) in data set [1] and in data set [2] were 4.79 and 5.03, respectively.

As for AGUAGGG [7-mer AGUAGGG], in data set [1], the binding signal (RNAcompete z-score) came out at 4.88.

As to GAAAGGA [7-mer GAAAGGA], the binding signal (RNAcompete z-score) in data set [1] worked out at 5.67; in data set [2], 5.87.

Regarding GAAGGGG [7-mer GAAGGGG], the binding signal (RNAcompete z-score) in data set [1] came out at 4.83; in data set [2], 5.25.

For the molecule GAAAGGG [7-mer GAAAGGG], the binding signal (RNAcompete z-score) in data set [1] worked out at 5.54; in data set [2] it was 6.04.

As to GGAUGGG [7-mer GGAUGGG], the results for the binding signal (RNAcompete z-score) in data set [1] and in data set [2] were 4.83 and 5.66, respectively.

As for GGUGGGG [7-mer GGUGGGG], the binding signal (RNAcompete z-score) in data set [2] was 5.21.

The molecule AAAGGGU [7-mer AAAGGGU] showed a binding signal (RNAcompete z-score) in data set [2] of 5.

In data set [1], GGUAGGG [7-mer GGUAGGG] gave a binding signal (RNAcompete z-score) of 4.79.

For GGGAAGG [7-mer GGGAAGG], the results for the binding signal (RNAcompete z-score) in data set [1] and in data set [2] were 5.54 and 5.91, respectively.

Consider GGUUGGG [7-mer GGUUGGG], for which, in data set [2], the binding signal (RNAcompete z-score) stood at 5.27.

As to GGAAAGG [7-mer GGAAAGG], the binding signal (RNAcompete z-score) in data set [1] came to 6.43; in data set [2] it was 6.53.

In data set [1], AGGGAAA [7-mer AGGGAAA] had a binding signal (RNAcompete z-score) of 4.87.

In the case of GGGAUGG [7-mer GGGAUGG], the binding signal (RNAcompete z-score) in data set [1] is 5.12; in data set [2], 5.71.

GGUAAGG [7-mer GGUAAGG]: the binding signal (RNAcompete z-score) is 4.92 in data set [1] and 4.97 in data set [2].

As to GGAAGGG [7-mer GGAAGGG], the binding signal (RNAcompete z-score) was 5.56 in data set [1] and 6 in data set [2].

Regarding GAGUGGG [7-mer GAGUGGG], the binding signal (RNAcompete z-score) in data set [1] is 4.9; in data set [2], 4.99.

Consider AAGGGUG [7-mer AAGGGUG], for which the figures for the binding signal (RNAcompete z-score) in data set [1] and in data set [2] were 5.29 and 5.25, respectively.

On to CUGAGGA (ssRNA), for which the binding signal with RBM10 RRM1-ZnF [3] was < 2 fold decrease in affinity vs CUGUGGA.

Consider UGUGGA (ssRNA), for which the binding signal with RBM10 RRM1-ZnF [3] is ~2 fold decrease in affinity vs CUGUGGA.

Consider CUAUGGA (ssRNA), for which the binding signal with RBM10 RRM1-ZnF [3] was ~5 fold decrease in affinity vs CUGUGGA.

Regarding UAAUA (ssRNA), in the data set with RBM10 RRM2, the binding result was “no binding”.

As to CCCAC (ssRNA), the equilibrium dissociation constant (Kd) with RBM10 RRM2 was approximately 7 µM.

As to CUGUGGA (ssRNA), the binding result in the data set with RBM10 RRM1-ZnF [4] and with RBM10 RRM1-ZnF-RRM2 was “binds” in each case.

Regarding CUGUGGU (ssRNA), in the data set with RBM10 RRM1-ZnF [5], the binding signal is ~3 fold decrease in affinity vs CUGUGGA.

Regarding CAGUGGA (ssRNA), the binding signal with RBM10 RRM1-ZnF [3] is < 2 fold decrease in affinity vs CUGUGGA.
